Data on one molecule can be found in US7052704B2, “Methods and compositions for lipidization of hydrophilic molecules” (University of Southern California, priority 1995, dated 2006).

Series [1] relates to C3H 10T1/2(clone 8) cells. In words: In vitro transformation assay (MCA-induced). The settings on record: MCA 1 μg/ml 24 hr, then conjugates 1.0 μg/ml for first three weeks. Format: cell-based. Here is the method:
Transformation assays were carried out using C3H 10T1/2(clone 8) cells according to the published recommendations [Reznikoff, C. A. et al. (1973) Cancer. Res. 33, 3239–3249; Reznikoff, C. A. et al. (1973) Cancer. Res. 33, 3231–3238]. Stock cultures of mycoplasma-free cells were maintained by passing 50,000 cells per 75 cm^2 flask every seven days. Using this schedule, the cells were always passed approximately 2 days before reaching confluence. The stock culture was grown in Eagle's basal medium supplemented with 10% FBS, penicillin (100 units), and streptomycin (100 μg) and used for the transformation assays at passages of 9 to 14. The cells were passed by treating the stock cells with trypsin (0.1%) in PBS for 5 min and quenching the trypsin with 5 ml of the medium. This procedure was adapted to minimize spontaneous transformation in the stock cultures and maximize the plating efficiency in the petri dishes. The FBS stock used in the cultures was pre-screened to ensure that the serum was able to support the expression and the growth of the transformed cells.
For the transformation assays, C3H 10T1/2 cells (1000/dish) were seeded into 60 mm petri dishes and allowed to grow in a humidified 5% CO2 atmosphere in Eagle's basal medium, supplemented with 10% FBS, penicillin (100 units), and streptomycin (100 μg), for 24 hr. Subsequently, the cells were initiated by treatment with 25 μl of the 3-methylcholanthrene (MCA) in acetone stock solution ([…]) to a final concentration of 1 μg/ml of MCA (5 μg/5 ml). The cells were allowed to grow in the presence of the carcinogen or solvent for 24 hr, and the medium in each dish was then replaced with fresh medium containing no carcinogen or solvent. The medium in the dishes was replaced twice per week for the first two weeks of the assay, and thereafter once a week for the remainder four weeks of the assay. In the experiments designed to determine the transformation inhibitory activity of the conjugates, the cells were maintained in the medium containing the conjugates (1 μg/ml) for the first three weeks of the assay; thereafter, the cells were maintained in medium containing no added conjugates.
Six weeks after the carcinogen treatment, the cells were inspected under a microscope for adherence to the culture dishes and were washed with PBS and then fixed in 100% methanol. The fixed monolayers were then stained with Giemsa stain. 20 dishes per group were treated in each experiment. In addition to the test groups, all the transformation assays contained at least three other groups: negative control (not treated with carcinogen or solvent), acetone control (treated with 25 μl of acetone), and positive control [treated with MCA (1 μg/ml) in 25 μl of acetone]. The transformed foci (>3 mm in diameter) in the plates were studied under a microscope and classified according to published guidelines as types I, II, or III [Landolph, J. R. (1985) Transfomatin assay of established cell lines: Mechanism and Application (ed. Kakunaga, T., and Yamasaki, H.) IARC Scientific Publications, Lyon, France pp. 185–201]. Briefly, type III foci were dense, multilayered, basophilic, areas of cell growth which stained to a deep blue color with Giemsa and had rough criss-crossed edges. Type II foci were also dense, multilayered, areas of cell growth, but were stained to a purple color with Giemsa and had smoother, more defined edges compared to Type III foci. Type I foci were not scored in the assay.
BBI, either as the free protein or in conjugated form to palmitic or oleic acid, was added to the cultures at 1.0 μg/ml for the first three weeks of the transformation assay period starting immediately after the MCA treatment. MCA-treated cells were exposed to 3-methylcholanthrene, dissolved in 25 /μl of acetone, at a concentration of 1 μg/ml for 24 hr. Acetone-treated cells were exposed to 25 μl of acetone for 24 hr only. […]

Series [2] deals with Human colon carcinoma cells (Caco-2). As to the kind of experiment: Uptake of 125I-BBI conjugates into Caco-2 cell monolayers.
The conditions of series [3]: cited from earlier work.

B1: BBI: hydrophilic protein which has low uptake into cells and is not orally bioavailable; used for chemoprevention (protein, UniProt P01055 40-110, looked up)
Bowman-Birk type proteinase …: DDESSKPCCDQCACTKSNPPQCRCSDMRLNSCHSACKSCICALSYPAQCFCVDITDFCYEPCKPSEDDKEN
On to B1, for which the “transformed foci in the dishes scored” value in series [1] is reported as “no transformed foci”. Besides, the “Fraction of dishes containing transformed foci” value in series [1] (scored at six weeks) amounted to 0. In addition, the “No. of dishes with transformed foci/No. of dishes” value in series [1] (scored at six weeks) is reported as 0/20. The “Uptake (ng BBI/mg of cell protein)/hr” value was 2.2 ± 0.17 (ng BBI/mg of cell protein)/hr in series [2] (1% FBS, 10 μg/ml, 60 min, 37° C., ± SEM, three monolayers); 1.3 ± 0.02 (ng BBI/mg of cell protein)/hr in series [2] (10% FBS, 10 μg/ml, 60 min, 37° C., ± SEM, three monolayers); 3.9 ± 0.00 (ng BBI/mg of cell protein)/hr in series [2] (BSA/FA: fatty acid-loaded BSA 0.1% (3-molar excess of palmitic acid)); 4.8 ± 0.00 (ng BBI/mg of cell protein)/hr in series [2] (BSA: fatty acid-free BSA 0.1%); 5.2 ± 0.00 (ng BBI/mg of cell protein)/hr in series [2] (DTT-treated (50 mM, 5 min 60° C. and 25 min 37° C.), serum-free medium); 4.8 ± 0.00 (ng BBI/mg of cell protein)/hr in series [2] (Untreated, serum-free medium). In addition, the “Uptake (ng BBI/mg of cell protein)/hr” value was 4.8 ± 0.00 (ng BBI/mg of cell protein)/hr in series [2] (serum free (BSA-free) Dulbecco medium) and 3.9 ± 0.19 (ng BBI/mg of cell protein)/hr in series [2] (serum free, 10 μg/ml, 60 min, 37° C., ± SEM, three monolayers). Besides, the “effect of defatted-BSA on uptake” value in series [2] (defatted-BSA 0.1% in medium) is given as “not affected”. Besides, the “effect of fatty acid-loaded BSA on uptake” value in series [2] (fatty acid-loaded BSA 0.1%) is listed as “again not affected”. Besides, the “effect of exposure to DTT on uptake” value in series [2] (serum-free medium) was “did not cause a reduction in the uptake”. Besides, the “oral bioavailability” value in series [3] was “not orally bioavailable”. The “stability in the GI tract” value in series [3] (mammalian proteases in the gut, Yavelow et al. 1983) is listed as “stable in the GI tract”.
